Assay results reported in US20180044434A1 (PUBLIC UNIVERSITY CORPORATION YOKOHAMA CITY UNIVERSITY, published 2018).

T1: Ala mutant of TA0096, SEQ ID NO: 38
T1 peptide: EENMDDQWMQDAMEIGY

T2: Ala mutant of TA0096, SEQ ID NO: 42
T2 peptide: EENMDDQWMQDEMEIAY

T3: Ala mutant of TA0096, SEQ ID NO: 41
T3 peptide: EENMDDQWMQDEMEAGY

T4: Ala mutant of TA0096, SEQ ID NO: 36
T4 peptide: EENMDDQWMADEMEIGY

T5: Ala mutant of TA0096, SEQ ID NO: 43
T5 peptide: EENMDDQWMQDEMEIGA

T6: Ala mutant of TA0096, SEQ ID NO: 29
T6 peptide: EEAMDDQWMQDEMEIGY

T7: Ala mutant of TA0096, SEQ ID NO: 33
T7 peptide: EENMDDAWMQDEMEIGY

T8: Ala mutant of TA0096, SEQ ID NO: 30
T8 peptide: EENADDQWMQDEMEIGY

T9: Ala mutant of TA0096, SEQ ID NO: 35
T9 peptide: EENMDDQWAQDEMEIGY

T10: Ala mutant of TA0096, SEQ ID NO: 40
T10 peptide: EENMDDQWMQDEMAIGY

T11: Ala mutant of TA0096, SEQ ID NO: 27
T11 peptide: AENMDDQWMQDEMEIGY

T12: Ala mutant of TA0096, SEQ ID NO: 39
T12 peptide: EENMDDQWMQDEAEIGY

T13: Ala mutant having 3-amino acid substitution, SEQ ID NO: 45
T13 peptide: EENAAAQWMQDEMEIGY

T14: Ala mutant having 3-amino acid substitution, SEQ ID NO: 47
T14 peptide: EENMDDQWMAAAMEIGY

T15: Ala mutant of TA0096, SEQ ID NO: 34
T15 peptide: EENMDDQAMQDEMEIGY

T16: TA0096 (peptide antigen corresponding to positions 340 to 356 of PAD4)
T16 peptide: EENMDDQWMQDEMEIGY

T17: Ala mutant of TA0096, SEQ ID NO: 28
T17 peptide: EANMDDQWMQDEMEIGY

T18: Ala mutant of TA0096, SEQ ID NO: 31
T18 peptide: EENMADQWMQDEMEIGY

T19: Ala mutant of TA0096, SEQ ID NO: 37
T19 peptide: EENMDDQWMQAEMEIGY

T20: Ala mutant having 3-amino acid substitution, SEQ ID NO: 44
T20 peptide: AAAMDDQWMQDEMEIGY

T21: Ala mutant having 3-amino acid substitution, SEQ ID NO: 48
T21 peptide: EENMDDQWMQDEAAAGY

T22: Ala mutant having 3-amino acid substitution, SEQ ID NO: 49
T22 peptide: EENMDDQWMQDEMEIAA

B1: G6 (antibody, V domains shown)
VH: AVTLDESGGGLQTPGGALSLVCKASGFTFSSYGMEWVRQAPGKGLEYVAAIRNDGSWTGYGAAVKGRATISRDDGQSTLRLQLNNLRAEDTATYYCAKTTGSSGGSIDAWGHGTEVIVS
VL: ASTQPSSVSANLGETVKITCSGGGNYYYGWYQQKSPGSAPVTLIYANDKRPSNIPSRFSGSKSGSTGTLTITGVQAEDEAVYFCGTADTGKYVFGAGTTLTVL
notes: Chicken variable regions in a mouse chimeric antibody (IgG1); also called anti-PAD4 antibody G6
B2: G8 (antibody, V domains shown)
VH: AVTLDESGGGLQTPGGALSLVCKASGFTFSTYAMGWMRQAPGKGLEYVAAIRNDGSWTGYGAAVKGRATILRDNGQSTVRLQLSNLRAEDTGTYYCAKYTGSSGGSIGAWGHGTEVIVS
VL: ASTQPSSVSANLGGTVEITCSGGNRNYYYGWYQQKSPGSAPVTLIYANDKRPSNIPSRFSGSKSGSTGTLTITGVQAEDEAVYFCGTADTGKYVFGAGTTLTVL
notes: Chicken variable regions in a mouse chimeric antibody (IgG1); also called anti-PAD4 antibody G8
B3: H7 (antibody, V domains shown)
VH: B2 VH
VL: ASTQPSSVSANPGGTVEITCSGGSGRYYYGWYQQKSPGSAPVTVIYSSTHRPSNIPSRFSGSKSGSTATLTITGVQAEDEAVYFCGTADSSSYVFGAGTTLTVL
notes: Chicken variable regions in a mouse chimeric antibody (IgG1); also called anti-PAD4 antibody H7

Target: T23, full-length recombinant human PAD4 (human, UniProt Q9UM07 1-663)
T23 construct: Full-length recombinant; also called peptidylarginine deiminase 4
Assay: ELISA, coated human PAD4; antibody 6.104E-05 ug/mL

T23 sequence (Q9UM07 whole entry): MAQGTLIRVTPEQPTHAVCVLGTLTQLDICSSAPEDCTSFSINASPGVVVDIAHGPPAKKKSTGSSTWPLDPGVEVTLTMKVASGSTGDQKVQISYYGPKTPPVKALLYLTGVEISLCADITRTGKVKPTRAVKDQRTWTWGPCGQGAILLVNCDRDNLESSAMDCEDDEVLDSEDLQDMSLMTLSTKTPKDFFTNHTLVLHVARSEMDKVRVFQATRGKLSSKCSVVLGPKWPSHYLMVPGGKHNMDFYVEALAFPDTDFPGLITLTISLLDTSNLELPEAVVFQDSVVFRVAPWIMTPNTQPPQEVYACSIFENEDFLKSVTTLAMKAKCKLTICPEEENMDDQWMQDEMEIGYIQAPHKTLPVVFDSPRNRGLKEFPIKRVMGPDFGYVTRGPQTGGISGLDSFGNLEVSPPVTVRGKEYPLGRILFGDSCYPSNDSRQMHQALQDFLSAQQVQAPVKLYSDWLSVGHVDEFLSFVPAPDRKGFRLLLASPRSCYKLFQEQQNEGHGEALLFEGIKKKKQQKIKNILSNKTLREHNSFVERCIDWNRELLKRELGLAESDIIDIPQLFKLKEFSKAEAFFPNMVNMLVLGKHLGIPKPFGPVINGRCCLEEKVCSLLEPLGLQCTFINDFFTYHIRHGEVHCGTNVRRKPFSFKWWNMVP

Row | Binder | OD 490/630 nm
1 | B1 | 0.075
2 | B2 | 0.1
3 | B3 | 0.111

Target: T24, full-length recombinant mouse PAD4 (mouse, UniProt Q9Z183 1-666)
T24 construct: mature; Full-length recombinant
Assay: ELISA, coated mouse PAD4; antibody 0.0625 ug/mL

T24 sequence (Q9Z183 whole entry): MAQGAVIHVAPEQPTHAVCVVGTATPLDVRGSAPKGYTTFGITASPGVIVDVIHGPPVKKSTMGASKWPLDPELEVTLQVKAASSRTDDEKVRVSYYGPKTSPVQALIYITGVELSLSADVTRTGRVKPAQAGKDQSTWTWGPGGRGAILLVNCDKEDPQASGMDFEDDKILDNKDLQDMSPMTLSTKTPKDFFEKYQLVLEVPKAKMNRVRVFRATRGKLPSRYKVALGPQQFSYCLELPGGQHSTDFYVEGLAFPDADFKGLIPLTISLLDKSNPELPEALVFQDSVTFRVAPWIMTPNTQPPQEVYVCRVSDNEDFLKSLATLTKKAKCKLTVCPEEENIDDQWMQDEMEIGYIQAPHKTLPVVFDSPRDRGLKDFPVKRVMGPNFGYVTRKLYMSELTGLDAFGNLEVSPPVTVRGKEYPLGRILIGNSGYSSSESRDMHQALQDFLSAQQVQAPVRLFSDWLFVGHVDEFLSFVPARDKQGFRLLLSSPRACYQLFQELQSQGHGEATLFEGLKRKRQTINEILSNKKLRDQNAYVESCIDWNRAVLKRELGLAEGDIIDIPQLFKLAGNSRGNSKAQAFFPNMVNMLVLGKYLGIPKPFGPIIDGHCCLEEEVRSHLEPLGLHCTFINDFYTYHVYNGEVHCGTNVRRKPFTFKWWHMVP

Row | Binder | OD 490/630 nm
4 | B1 | 2.16
5 | B2 | 2.22
6 | B3 | 2.29

Target: T23, full-length recombinant human PAD4
Assay: ELISA, coated human PAD4; antibody 0.0002441 ug/mL

Row | Binder | OD 490/630 nm
7 | B1 | 0.166
8 | B2 | 0.184
9 | B3 | 0.217

Target: T24, full-length recombinant mouse PAD4
Assay: ELISA, coated mouse PAD4; antibody 0.0009766 ug/mL

Row | Binder | OD 490/630 nm
10 | B1 | 0.2
11 | B2 | 0.555
12 | B3 | 0.55

Target: T24, full-length recombinant mouse PAD4
Assay: ELISA, coated mouse PAD4; antibody 0.0002441 ug/mL

Row | Binder | OD 490/630 nm
13 | B1 | 0.071
14 | B2 | 0.205
15 | B3 | 0.224

Target: T24, full-length recombinant mouse PAD4
Assay: ELISA, coated mouse PAD4; antibody 0.0039063 ug/mL

Row | Binder | OD 490/630 nm
16 | B1 | 0.55
17 | B2 | 1.42
18 | B3 | 1.41

Target: T23, full-length recombinant human PAD4
Assay: ELISA, coated human PAD4; antibody 0.0039063 ug/mL

Row | Binder | OD 490/630 nm
19 | B1 | 1.16
20 | B2 | 1.34
21 | B3 | 1.35

Target: T1, Ala mutant of TA0096, SEQ ID NO: 38
Assay: ELISA, coated peptide

Row | Binder | OD 490/630 nm
22 | B1 | 1.92
23 | B2 | 1.91
24 | B3 | 1.99

Target: T2, Ala mutant of TA0096, SEQ ID NO: 42
Assay: ELISA, coated peptide

Row | Binder | OD 490/630 nm
25 | B1 | 1.87
26 | B2 | 1.86
27 | B3 | 1.85

Target: T3, Ala mutant of TA0096, SEQ ID NO: 41
Assay: ELISA, coated peptide

Row | Binder | OD 490/630 nm
28 | B1 | 1.87
29 | B2 | 1.85
30 | B3 | 1.83

Target: T4, Ala mutant of TA0096, SEQ ID NO: 36
Assay: ELISA, coated peptide

Row | Binder | OD 490/630 nm
31 | B1 | 1.85
32 | B2 | 1.92
33 | B3 | 1.87

Target: T5, Ala mutant of TA0096, SEQ ID NO: 43
Assay: ELISA, coated peptide

Row | Binder | OD 490/630 nm
34 | B1 | 1.87
35 | B2 | 1.92
36 | B3 | 1.87

Target: T6, Ala mutant of TA0096, SEQ ID NO: 29
Assay: ELISA, coated peptide

Row | Binder | OD 490/630 nm
37 | B1 | 1.95
38 | B2 | 1.91
39 | B3 | 1.9

Target: T7, Ala mutant of TA0096, SEQ ID NO: 33
Assay: ELISA, coated peptide

Row | Binder | OD 490/630 nm
40 | B1 | 1.98
41 | B2 | 1.98
42 | B3 | 1.87

Target: T8, Ala mutant of TA0096, SEQ ID NO: 30
Assay: ELISA, coated peptide

Row | Binder | OD 490/630 nm
43 | B1 | 1.92
44 | B2 | 1.93
45 | B3 | 1.95

Target: T9, Ala mutant of TA0096, SEQ ID NO: 35
Assay: ELISA, coated peptide

Row | Binder | OD 490/630 nm
46 | B1 | 0.015
47 | B2 | 0.233
48 | B3 | 0.065

Target: T10, Ala mutant of TA0096, SEQ ID NO: 40
Assay: ELISA, coated peptide

Row | Binder | OD 490/630 nm
49 | B1 | 1.86
50 | B2 | 1.89
51 | B3 | 1.86

Target: T11, Ala mutant of TA0096, SEQ ID NO: 27
Assay: ELISA, coated peptide

Row | Binder | OD 490/630 nm
52 | B1 | 1.91
53 | B2 | 1.96
54 | B3 | 1.9

Target: T12, Ala mutant of TA0096, SEQ ID NO: 39
Assay: ELISA, coated peptide

Row | Binder | OD 490/630 nm
55 | B1 | 1.83
56 | B2 | 1.88
57 | B3 | 1.81

Target: T13, Ala mutant having 3-amino acid …
Assay: ELISA, coated peptide

Row | Binder | OD 490/630 nm
58 | B1 | 0.018
59 | B2 | 0.065
60 | B3 | 0.016

Target: T14, Ala mutant having 3-amino acid …
Assay: ELISA, coated peptide

Row | Binder | OD 490/630 nm
61 | B1 | 1.73
62 | B2 | 1.86
63 | B3 | 1.67

Target: T15, Ala mutant of TA0096, SEQ ID NO: 34
Assay: ELISA, coated peptide

Row | Binder | OD 490/630 nm
64 | B1 | 0.042
65 | B2 | 0.04
66 | B3 | 0.066

Target: T16, TA0096 (peptide antigen corresponding …)
Assay: ELISA, coated peptide

Row | Binder | OD 490/630 nm
67 | B1 | 1.87
68 | B2 | 1.88
69 | B3 | 1.82

Target: T17, Ala mutant of TA0096, SEQ ID NO: 28
Assay: ELISA, coated peptide

Row | Binder | OD 490/630 nm
70 | B1 | 1.99
71 | B2 | 1.94
72 | B3 | 1.95

Target: T18, Ala mutant of TA0096, SEQ ID NO: 31
Assay: ELISA, coated peptide

Row | Binder | OD 490/630 nm
73 | B1 | 1.77
74 | B2 | 1.85
75 | B3 | 0.462

Target: T19, Ala mutant of TA0096, SEQ ID NO: 37
Assay: ELISA, coated peptide

Row | Binder | OD 490/630 nm
76 | B1 | 1.85
77 | B2 | 1.88
78 | B3 | 1.86

Target: T20, Ala mutant having 3-amino acid …
Assay: ELISA, coated peptide

Row | Binder | OD 490/630 nm
79 | B1 | 1.92
80 | B2 | 1.9
81 | B3 | 1.9

Target: T21, Ala mutant having 3-amino acid …
Assay: ELISA, coated peptide

Row | Binder | OD 490/630 nm
82 | B1 | 1.85
83 | B2 | 1.88
84 | B3 | 1.87

Target: T22, Ala mutant having 3-amino acid …
Assay: ELISA, coated peptide

Row | Binder | OD 490/630 nm
85 | B1 | 1.88
86 | B2 | 1.86
87 | B3 | 1.86

Target: T24, full-length recombinant mouse PAD4
Assay: ELISA, coated mouse PAD4; antibody 0.25 ug/mL

Row | Binder | OD 490/630 nm
88 | B1 | 2.27
89 | B2 | 2.25
90 | B3 | 2.31

Target: T23, full-length recombinant human PAD4
Assay: ELISA, coated human PAD4; antibody 1 ug/mL

Row | Binder | OD 490/630 nm
91 | B1 | 2.11
92 | B2 | 2.12
93 | B3 | 2.11

Target: T24, full-length recombinant mouse PAD4
Assay: ELISA, coated mouse PAD4; antibody 0.015625 ug/mL

Row | Binder | OD 490/630 nm
94 | B1 | 1.35
95 | B2 | 2.25
96 | B3 | 2.26

Target: T23, full-length recombinant human PAD4
Assay: ELISA, coated human PAD4; antibody 0.0625 ug/mL

Row | Binder | OD 490/630 nm
97 | B1 | 2.12
98 | B2 | 2.12
99 | B3 | 2.12
